Source: patent US20260217804A1 (BIOARCTIC, published 2026)

T1: AβpE11-40 monomer (UniProt P05067 682-711, pyroglutamate (pE) at position 11, the N-terminus)
T1 construct: range 11-40; The range counts on Aβ numbering, not on APP
T1 peptide (looked up): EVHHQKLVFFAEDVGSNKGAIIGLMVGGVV

B1: H2L7 (antibody, human IgG1, kappa, V domains shown)
VH: EVQLVQSGAEVKKPGASVRLSCKASGYSFTGFTMNWVRQALGQGLEWMGLINPYNGVTTYNQKFKGRLTMTRDMSTRTVYMDLSSLRYEDTAVYYCTREGNWEGVYWGQGTLVTVSS
VL: EIVLTQSPLSLSVTLGQSASISCRSSQSLLDSNGKTYLHWFILRPGQSPRRLIYLVSILDSGVPDRFSGSGSGTDFTLKISRVEAEDVGVYYCVQGTHFPFTFGSGTKLEIKR
notes: Humanized IgG1/kappa, expressed in CHO cells; also called humanized Pyr12.2 variant H2L7; VH2/VL7
B2: H2L7-K12V/R71A (antibody, human IgG1, kappa)
heavy: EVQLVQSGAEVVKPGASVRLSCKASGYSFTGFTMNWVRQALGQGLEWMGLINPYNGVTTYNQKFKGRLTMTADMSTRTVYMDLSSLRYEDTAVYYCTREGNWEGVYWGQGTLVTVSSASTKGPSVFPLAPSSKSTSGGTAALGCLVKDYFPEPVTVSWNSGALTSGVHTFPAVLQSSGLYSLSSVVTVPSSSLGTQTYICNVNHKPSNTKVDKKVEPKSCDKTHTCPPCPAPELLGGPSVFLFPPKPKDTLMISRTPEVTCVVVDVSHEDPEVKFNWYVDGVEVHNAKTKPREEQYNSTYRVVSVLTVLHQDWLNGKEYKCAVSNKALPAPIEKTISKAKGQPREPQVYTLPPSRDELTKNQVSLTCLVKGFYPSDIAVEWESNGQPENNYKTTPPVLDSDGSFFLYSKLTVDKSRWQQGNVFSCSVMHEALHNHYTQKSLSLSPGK
light: EIVLTQSPLSLSVTLGQSASISCRSSQSLLDSNGKTYLHWFILRPGQSPRRLIYLVSILDSGVPDRFSGSGSGTDFTLKISRVEAEDVGVYYCVQGTHFPFTFGSGTKLEIKRTVAAPSVFIFPPSDEQLKSGTASVVCLLNNFYPREAKVQWKVDNALQSGNSQESVTEQDSKDSTYSLSSTLTLSKADYEKHKVYACEVTHQGLSSPVTKSFNRGEC
notes: Variant of H2L7 with changes in VH only
B3: H2L7-K12V/R83T (antibody, human IgG1, kappa, V domains shown)
VH: EVQLVQSGAEVVKPGASVRLSCKASGYSFTGFTMNWVRQALGQGLEWMGLINPYNGVTTYNQKFKGRLTMTRDMSTRTVYMDLSSLTYEDTAVYYCTREGNWEGVYWGQGTLVTVSS
VL: EIVLTQSPLSLSVTLGQSASISCRSSQSLLDSNGKTYLHWFILRPGQSPRRLIYLVSILDSGVPDRFSGSGSGTDFTLKISRVEAEDVGVYYCVQGTHFPFTFGSGTKLEIKR
notes: as for B2
B4: AβpE11-28 monomer (peptide, UniProt P05067 682-699, looked up)
peptide: EVHHQKLVFFAEDVGSNK
modifications: pyroglutamate (pE) at position 11, the N-terminus
notes: range 11-28; The range counts on Aβ numbering, not on APP
B5: H9L8 (antibody, human IgG1, kappa, V domains shown)
VH: QVQLVQSGPEVKKPGSSVKVSCKASGYSFTGFTMNWVRQTPGKGLEWIGLINPYNGVTTYNQKFKGRVTITADESTRTAYMELLSLTYEDTAVYYCTREGNWEGVYWGQGTPVTVSA
VL: EVVLTQSPLSISVTLGQSASISCRSSQSLLDSNGKTYLHWFILRPGQSPRRLIYLVSILDSGIPDRFSGSGSGTDFTLKISRVEAEDVGVYYCVQGTHFPFTFGGGTKLEIKR
notes: Humanized IgG1/kappa, expressed in CHO cells; also called humanized Pyr12.2 variant H9L8; VH9/VL8

Legend:
[1] = molecular target: T2, Aβ1-40 monomer (UniProt P05067 672-711); experiment: inhibition ELISA
T2 construct: range 1-40
Description: (§1) The humanized antibodies were incubated at a fixed concentration (0.5 μg/ml) with titrating concentrations of the different Aβ antigens. […] The samples were incubated on the plate for 25 min without shaking followed by washing, incubation with detection antibody, another washing step and finally incubation with alkaline phosphatase substrate.

[2] = molecular target: T1, AβpE11-40 monomer; experiment: inhibition ELISA
Description: as §1

[3] = molecular target: T3, Aβ1-42 monomer (UniProt P05067 672-713); experiment: capture ELISA: plate coated with rabbit anti-Aβ42, peptide monomer captured, hybridoma supernatant, anti-mouse IgG-HRP, OD450 (Example 1)
T3 construct: range 1-42; The range counts on Aβ numbering, not on APP; also called monomeric Aβ1-42

[4] = molecular target: T4, Aβ2-42 monomer (UniProt P05067 673-713); experiment: as above
T4 construct: range 2-42; The range counts on Aβ numbering, not on APP

[5] = molecular target: T5, Aβ1-42 protofibrils (UniProt P05067 672-713); experiment: inhibition ELISA
T5 construct: range 1-42; Soluble aggregates of Aβ1-42; The range counts on Aβ numbering, not on APP
Description: as §1

[6] = molecular target: T6, Aβ1-28 monomer (UniProt P05067 672-699); experiment: inhibition ELISA
T6 construct: range 1-28; The range counts on Aβ numbering, not on APP
Description: as §1

[7] = molecular target: T7, Aβ2-28 monomer (UniProt P05067 673-699); experiment: inhibition ELISA
T7 construct: range 2-28; The range counts on Aβ numbering, not on APP
Description: as §1

[8] = molecular target: T8, Aβ3-28 monomer (UniProt P05067 674-699); experiment: inhibition ELISA
T8 construct: range 3-28; The range counts on Aβ numbering, not on APP
Description: as §1

[9] = molecular target: T9, AβpE3-28 monomer (UniProt P05067 674-699, pyroglutamate (pE) at position 3, the N-terminus); experiment: inhibition ELISA
T9 construct: range 3-28; The range counts on Aβ numbering, not on APP
Description: as §1

[10] = molecular target: T10, Aβ4-28 monomer (UniProt P05067 675-699); experiment: inhibition ELISA
T10 construct: range 4-28; The range counts on Aβ numbering, not on APP
Description: as §1

[11] = molecular target: T11, Aβ5-28 monomer (UniProt P05067 676-699); experiment: inhibition ELISA
T11 construct: range 5-28; The range counts on Aβ numbering, not on APP
Description: as §1

[12] = molecular target: B4; experiment: inhibition ELISA
Description: as §1

[13] = molecular target: T12, AβpE3-40 monomer (UniProt P05067 674-711, pyroglutamate (pE) at position 3, the N-terminus); experiment: SPR (Biacore 8K), antibody immobilised on CM5, monomer injected, 1:1 model
T12 construct: range 3-40; also called monomeric AβpE3-40
Description: For the measurements, 5 μg/ml of […] antibody was immobilized on the chip. The monomer was then injected over the chip using a 2-fold dilution in five steps starting at 250 nM, using 2 min injection of every […] concentration and a 20 min dissociation time. Regeneration of the surface between cycles was done by injecting 30 μl 3 M MgCl₂. The binding data was fitted to a 1:1 interaction model.
In all SPR experiments, 1×HBS-EP+ (Cytiva, cat. no. BR100669) was used to dilute antibodies and target antigens. Experiments were performed at 25° C.
Affinity evaluation and Ko determination by surface plasmon resonance: Binding interactions between antigens and antibodies were evaluated by SPR using a Biacore 8K instrument (Cytiva) according to standard procedures.

[14] = molecular target: B1; experiment: inhibition ELISA: antigen in solution titrated, antibody fixed (0.5 µg/ml), AβpE3-40 coat
Description: as §1

[15] = molecular target: B5; experiment: as above
Description: as §1

[16] = molecular target: B1; experiment: inhibition ELISA as in Example 6: antigen in solution titrated, antibody fixed, AβpE3-40 coat
Description: as §1

[17] = molecular target: B2; experiment: as above
Description: as §1

[18] = molecular target: B3; experiment: as above
Description: as §1

binding result [1]	binding result [5]	binding result [8]	binding result [9]	Binder	further results
no binding (tested: 5 µM)	–	–	–	Pyr12.2 (antibody, IgG2c, V domains shown, also called recombinant antibody Pyr12.2; hybridoma clone Pyr12.2) VH: EVQLQQSGPELVKPGTSIKMSCKASGYSFTGFTMNWVKQSHGKNLEWIGLINPYNGVTTYNQKFKGKATITVDKSSRTAYMELLSLTYEDSAVYYCTREGNWEGVYWGQGTPVTVSA VL: EVVLTQTPLTLSVTIGQSASISCKSSQSLLDSNGKTYLHWFLLRPGQSPKRLIYLVSILDSGVPDRFTGSGSGTDFTLKISRVEAEDLGIYYCVQGTHFPFTFGSGTKLEIKR	binding result [2]: no binding (tested: 5 µM); binding result [3]: no binding (tested: no concentration on the sheet); binding result [4]: no binding (tested: no concentration on the sheet)
no binding (tested: 12.5 µM)	no binding (tested: 500 nM)	binds	binds	B1	binding result [6]: no binding (tested: 12500 nM); binding result [7]: no binding (tested: 12500 nM); binding result [10]: no binding (tested: 12500 nM); binding result [11]: no binding (tested: 12500 nM); binding result [12]: no binding (tested: 12500 nM)
no binding (tested: 500 nM)	no binding (tested: 132 nM)	–	–	H2L7-K12V/R71A/R83T (antibody, human IgG1, kappa, Variant of H2L7 with changes in VH only) heavy: not shown light: EIVLTQSPLSLSVTLGQSASISCRSSQSLLDSNGKTYLHWFILRPGQSPRRLIYLVSILDSGVPDRFSGSGSGTDFTLKISRVEAEDVGVYYCVQGTHFPFTFGSGTKLEIKRTVAAPSVFIFPPSDEQLKSGTASVVCLLNNFYPREAKVQWKVDNALQSGNSQESVTEQDSKDSTYSLSSTLTLSKADYEKHKVYACEVTHQGLSSPVTKSFNRGEC	–
no binding (tested: 500 nM)	no binding (tested: 132 nM)	binds	binds	B2	–
no binding (tested: 500 nM)	no binding (tested: 132 nM)	binds	binds	B3	–
no binding (tested: 500 nM)	no binding (tested: 132 nM)	–	–	H2L7-R71A/R83T (antibody, human IgG1, kappa, Variant of H2L7 with changes in VH only) heavy: not shown light: EIVLTQSPLSLSVTLGQSASISCRSSQSLLDSNGKTYLHWFILRPGQSPRRLIYLVSILDSGVPDRFSGSGSGTDFTLKISRVEAEDVGVYYCVQGTHFPFTFGSGTKLEIKRTVAAPSVFIFPPSDEQLKSGTASVVCLLNNFYPREAKVQWKVDNALQSGNSQESVTEQDSKDSTYSLSSTLTLSKADYEKHKVYACEVTHQGLSSPVTKSFNRGEC	Kd [13]: 0.00462 µM; koff [13]: 0.000225 s⁻¹; kon [13]: 50100 M⁻¹ s⁻¹
–	–	–	–	B4	IC50 [14]: > 12.5 µM; IC50 [15]: > 12.5 µM; IC50 [16]: > 12.5 µM; IC50 [17]: > 12.5 µM; IC50 [18]: > 12.5 µM
no binding (tested: 5 µM)	–	–	–	Pyr7.1 (antibody, IgG2c, V domains shown, also called recombinant antibody Pyr7.1; hybridoma clone Pyr7.1) VH: KVQLQQSGPELVKPGTSIKMSCKTSGYSFTGYTLNWVKQSPGKNPEWIGLINPYNGITTYNPKFMGKATLTVDKSSSTAYMELLSLTSEDSAVYYCSREGNWEGVYWGQGTLVTVSA VL: not shown	binding result [2]: no binding (tested: 5 µM); binding result [3]: no binding (tested: no concentration on the sheet); binding result [4]: no binding (tested: no concentration on the sheet)
no binding (tested: 12.5 µM)	no binding (tested: 500 nM)	binds	binds	B5	binding result [6]: no binding (tested: 12.5 µM); binding result [7]: no binding (tested: 12.5 µM); binding result [10]: no binding (tested: 12.5 µM); binding result [11]: no binding (tested: 12.5 µM); binding result [12]: no binding (tested: 12.5 µM)
no binding (tested: 500 nM)	no binding (tested: 132 nM)	–	–	H2L7-R71A (antibody, human IgG1, kappa, Variant of H2L7 with a change in VH only) heavy: not shown light: EIVLTQSPLSLSVTLGQSASISCRSSQSLLDSNGKTYLHWFILRPGQSPRRLIYLVSILDSGVPDRFSGSGSGTDFTLKISRVEAEDVGVYYCVQGTHFPFTFGSGTKLEIKRTVAAPSVFIFPPSDEQLKSGTASVVCLLNNFYPREAKVQWKVDNALQSGNSQESVTEQDSKDSTYSLSSTLTLSKADYEKHKVYACEVTHQGLSSPVTKSFNRGEC	–
